How the values were obtained:
Test in all cases: Initial velocity assays (rate of oxygen consumption) with ACC or substrate analogs
Format in all cases: biochemical, Lycopersicon esculentum
Conditions in all cases: other: O2 consumption, 25° C., pH 7.2, [Ascorbate] = 30 mM, [O2] = 258 μM, [CO2/bicarbonate] = 20 mM
[1] = substrate: CC(C)(N)C(=O)O
Method: (§1) Initial velocities were measured by the rate of oxygen consumption at 25° C., pH 7.2, using a YSI model 5300 biological oxygen monitor as previously described (Thrower 2001) with minor modifications. Standard reaction mixture (1 ml) contained 100 mM MOPS, pH 7.2, 20 mM NaHCO3, 100 mM NaCl, 20 mM sodium ascorbate, 0.1 mg/ml BSA, and ACC or substrate analog at various concentrations. Oxygen concentrations were kept at atmospheric concentration and determined using the oxygen monitor that was calibrated with air saturated water (258 μM oxygen at 25° C.). Reactions were initiated with 2 μL ACCO reconstituted with equimolar Fe(NH4)2(SO4)2. Data from initial velocity experiments with varying substrate concentrations were fitted to the Michaelis-Menton equation using the program Kalideograph.
(§2) The dependence of the initial velocity of oxygen consumption by ACCO:Fe(II) on the concentration of ACC or several substrate analogs was determined (Table 1). Either cyclic substrate analogs (including inhibitor Me-ACC, ACC-NH2, or ACC-OMe) or acyclic substrate analogs (AIB, D-Ala, or Gly) were used. […] Ascorbate and oxygen concentrations were kept constant at 30 mM and ˜258 μM, respectively.

[2] = substrate: C[C@@H](N)C(=O)O
Method: as §1, §2

[3] = substrate: NC1(C(=O)O)CC1
Method: as §1, §2

B1: ACC Oxidase (ACCO, ACO1) (Solanum lycopersicum) (protein)
chain: MENFPIINLEKLNGDERANTMEMIKDACENWGFFELVNHGIPHEVMDTVEKMTKGHYKKCMEQRFKELVASKGLEAVQAEVTDLDWESTFFLRHLPTSNISQVPDLDEEYREVMRDFAKRLEKLAEELLDLLCENLGLEKGYLKNAFYGSKGPNFGTKVSNYPPCPKPDLIKGLRAHTDAGGIILLFQDDKVSGLQLLKDEQWIDVPPMRHSIVVNLGDQLEVITNGKYKSVLHRVIAQTDGTRMSLASFYNPGSDAVIYPAKTLVEKEAEESTQVYPKFVFDDYMKLYAGLKFQAKEPRFEAMKAMESDPIASA
notes: made in house; host or cells: Escherichia coli BL21 (DE3)pLysS
- Km [1]: 0.92 ± 0.29 mm
- kcat [1]: 0.368 ± 0.0267 s⁻¹
- Km [2]: 4.42 ± 0.49 mm
- kcat [2]: 0.497 ± 0.015 s⁻¹
- Km [3]: 0.099 ± 0.018 mm
- kcat [3]: 0.607 ± 0.0233 s⁻¹
